Data: patent publication US10941182 (Amgen, dated 2021)
Starred links: 1 amine or outer side, 2 acyl side, 3 side chain; linkers in the order of their positions; H or OH if unused. Non-standard residues stand in square brackets, D forms with d. Primed or numbered codes have the meaning given here. *: point of attachment. AC4Abu = α-carboxy-4-aminobutyric acid, O=C(C(CCN[*:1])C(=O)[*:3])[*:2]; Oic = O=C(O)[C@@H]1C[C@@H]2CCCC[C@@H]2N1; Phe(4-Cl) = N[C@@H](Cc1ccc(Cl)cc1)C(=O)O; dPhe(4-Cl) = N[C@H](Cc1ccc(Cl)cc1)C(=O)O; γGlu = O=C(O)[C@H](CCC(=O)[*:2])N[*:1]; d(β3hF) = N[C@@H](CC(=O)O)Cc1ccccc1; NMeR = CN[C@@H](CCCNC(=N)N)C(=O)O; Palmitoyl = CCCCCCCCCCCCCCCC(=O)*; αMeF = C[C@](N)(Cc1ccccc1)C(=O)O; β3hF = N[C@H](CC(=O)O)Cc1ccccc1; Cha = N[C@@H](CC1CCCCC1)C(=O)O; αMeP = C[C@@]1(C(=O)O)CCCN1; β3hP = O=C(O)C[C@@H]1CCCN1; Pip = O=C(O)[C@@H]1CCCCN1; Nle = CCCC[C@H](N)C(=O)O; Pip′ = not defined here; AEEA = NCCOCCOCC(=O)O; Aib = CC(C)(N)C(=O)O; Nip = nipecotic acid

Tests used:
rat APJ receptor = target: T1, rat APJ receptor (rat, UniProt Q9JHG3 1-377); assay: cell-based or functional assay
T1 sequence (looked up): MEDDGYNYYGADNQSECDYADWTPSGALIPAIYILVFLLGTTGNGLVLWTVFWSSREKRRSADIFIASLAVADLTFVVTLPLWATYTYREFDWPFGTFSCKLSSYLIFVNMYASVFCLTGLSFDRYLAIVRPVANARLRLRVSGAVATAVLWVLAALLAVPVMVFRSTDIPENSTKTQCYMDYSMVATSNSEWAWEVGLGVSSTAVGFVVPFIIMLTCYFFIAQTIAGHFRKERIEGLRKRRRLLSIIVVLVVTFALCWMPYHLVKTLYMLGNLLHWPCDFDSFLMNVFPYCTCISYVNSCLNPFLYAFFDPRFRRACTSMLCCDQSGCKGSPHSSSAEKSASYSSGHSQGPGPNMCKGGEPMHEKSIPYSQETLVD

human APJ receptor = target: T2, human APJ receptor (human, UniProt P35414 1-380); assay: cell-based or functional assay
T2 sequence (looked up): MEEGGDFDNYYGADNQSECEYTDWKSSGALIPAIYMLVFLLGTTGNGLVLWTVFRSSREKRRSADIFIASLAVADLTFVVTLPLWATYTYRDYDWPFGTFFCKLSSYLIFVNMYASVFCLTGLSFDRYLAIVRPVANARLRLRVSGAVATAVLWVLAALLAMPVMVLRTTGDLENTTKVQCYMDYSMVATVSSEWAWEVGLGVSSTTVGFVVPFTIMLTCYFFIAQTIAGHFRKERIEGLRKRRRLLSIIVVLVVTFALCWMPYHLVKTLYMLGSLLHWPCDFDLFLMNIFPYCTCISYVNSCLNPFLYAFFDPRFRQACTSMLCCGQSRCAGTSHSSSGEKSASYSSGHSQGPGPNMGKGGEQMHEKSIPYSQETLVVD

B1: SEQ ID NO: 581 (peptide)
peptide: Palmitoyl-[AC4Abu][AEEA][AEEA][dQ]RP[NMeR][Cha]SHKG[Pip][Aib][Phe(4-Cl)]-OH
SMILES: CCCCCCCCCCCCCCCC(=O)NCCC(C(=O)O)C(=O)NCCOCCOCC(=O)NCCOCCOCC(=O)N[C@H](CCC(N)=O)C(=O)N[C@@H](CCCNC(=N)N)C(=O)N1CCC[C@H]1C(=O)N(C)[C@@H](CCCNC(=N)N)C(=O)N[C@@H](CC1CCCCC1)C(=O)N[C@@H](CO)C(=O)N[C@@H](Cc1c[nH]cn1)C(=O)N[C@@H](CCCCN)C(=O)NCC(=O)N1CCCC[C@H]1C(=O)NC(C)(C)C(=O)N[C@@H](Cc1ccc(Cl)cc1)C(=O)O
Rat APJ receptor
  EC50 Rat APJ Receptor: 5.85 nM
Human APJ receptor
  EC50 Human APJ Receptor: 1.4 nM

B2: SEQ ID NO: 568 (peptide)
peptide: Palmitoyl-[AC4Abu][AEEA][AEEA][dQ]RP[NMeR][Cha]SHKG[Pip′][Nle]P[d(β3hF)]-OH
Rat APJ receptor
  EC50 Rat APJ Receptor: 4.55 nM
Human APJ receptor
  EC50 Human APJ Receptor: 2.97 nM

B3: SEQ ID NO: 611 (peptide)
peptide: Palmitoyl-[γGlu][AEEA][AEEA][dQ]RP[NMeR][Cha]SHKG[Oic][Nle][β3hP][αMeF]-OH
SMILES: CCCCCCCCCCCCCCCC(=O)N[C@@H](CCC(=O)NCCOCCOCC(=O)NCCOCCOCC(=O)N[C@H](CCC(N)=O)C(=O)N[C@@H](CCCNC(=N)N)C(=O)N1CCC[C@H]1C(=O)N(C)[C@@H](CCCNC(=N)N)C(=O)N[C@@H](CC1CCCCC1)C(=O)N[C@@H](CO)C(=O)N[C@@H](Cc1c[nH]cn1)C(=O)N[C@@H](CCCCN)C(=O)NCC(=O)N1[C@H](C(=O)N[C@@H](CCCC)C(=O)N2CCC[C@H]2CC(=O)N[C@@](C)(Cc2ccccc2)C(=O)O)C[C@@H]2CCCC[C@@H]21)C(=O)O
Rat APJ receptor
  EC50 Rat APJ Receptor: 1.57 nM
Human APJ receptor
  EC50 Human APJ Receptor: 0.722 nM

B4: SEQ ID NO: 617 (peptide)
peptide: Palmitoyl-[γGlu][AEEA][AEEA][dQ]RP[NMeR][Cha]S[dH]KG[Oic][Nle][β3hP][d(β3hF)]-OH
SMILES: CCCCCCCCCCCCCCCC(=O)N[C@@H](CCC(=O)NCCOCCOCC(=O)NCCOCCOCC(=O)N[C@H](CCC(N)=O)C(=O)N[C@@H](CCCNC(=N)N)C(=O)N1CCC[C@H]1C(=O)N(C)[C@@H](CCCNC(=N)N)C(=O)N[C@@H](CC1CCCCC1)C(=O)N[C@@H](CO)C(=O)N[C@H](Cc1c[nH]cn1)C(=O)N[C@@H](CCCCN)C(=O)NCC(=O)N1[C@H](C(=O)N[C@@H](CCCC)C(=O)N2CCC[C@H]2CC(=O)N[C@@H](CC(=O)O)Cc2ccccc2)C[C@@H]2CCCC[C@@H]21)C(=O)O
Rat APJ receptor
  EC50 Rat APJ Receptor: 25.8 nM
Human APJ receptor
  EC50 Human APJ Receptor: 8.68 nM

B5: SEQ ID NO: 607 (peptide)
peptide: Palmitoyl-[γGlu][AEEA][AEEA][dQ]RP[NMeR][Cha]SHKG[Oic][Nle]P[dAMF]-OH
Rat APJ receptor
  EC50 Rat APJ Receptor: 0.55 nM
Human APJ receptor
  EC50 Human APJ Receptor: 0.0956 nM

B6: SEQ ID NO: 610 (peptide)
peptide: Palmitoyl-[γGlu][AEEA][AEEA][dQ]RP[NMeR][Cha]SHKG[Oic][Nle][αMeP][αMeF]-OH
SMILES: CCCCCCCCCCCCCCCC(=O)N[C@@H](CCC(=O)NCCOCCOCC(=O)NCCOCCOCC(=O)N[C@H](CCC(N)=O)C(=O)N[C@@H](CCCNC(=N)N)C(=O)N1CCC[C@H]1C(=O)N(C)[C@@H](CCCNC(=N)N)C(=O)N[C@@H](CC1CCCCC1)C(=O)N[C@@H](CO)C(=O)N[C@@H](Cc1c[nH]cn1)C(=O)N[C@@H](CCCCN)C(=O)NCC(=O)N1[C@H](C(=O)N[C@@H](CCCC)C(=O)N2CCC[C@@]2(C)C(=O)N[C@@](C)(Cc2ccccc2)C(=O)O)C[C@@H]2CCCC[C@@H]21)C(=O)O
Rat APJ receptor
  EC50 Rat APJ Receptor: 4.98 nM
Human APJ receptor
  EC50 Human APJ Receptor: 1.06 nM

B7: SEQ ID NO: 604 (peptide)
peptide: Palmitoyl-[γGlu][AEEA][AEEA][dQ]RP[NMeR][Cha]SHKG[Oic][Nle][Aib][dPhe(4-Cl)]-OH
SMILES: CCCCCCCCCCCCCCCC(=O)N[C@@H](CCC(=O)NCCOCCOCC(=O)NCCOCCOCC(=O)N[C@H](CCC(N)=O)C(=O)N[C@@H](CCCNC(=N)N)C(=O)N1CCC[C@H]1C(=O)N(C)[C@@H](CCCNC(=N)N)C(=O)N[C@@H](CC1CCCCC1)C(=O)N[C@@H](CO)C(=O)N[C@@H](Cc1c[nH]cn1)C(=O)N[C@@H](CCCCN)C(=O)NCC(=O)N1[C@H](C(=O)N[C@@H](CCCC)C(=O)NC(C)(C)C(=O)N[C@H](Cc2ccc(Cl)cc2)C(=O)O)C[C@@H]2CCCC[C@@H]21)C(=O)O
Rat APJ receptor
  EC50 Rat APJ Receptor: 0.512 nM
Human APJ receptor
  EC50 Human APJ Receptor: 0.423 nM

B8: SEQ ID NO: 609 (peptide)
peptide: Palmitoyl-[γGlu][AEEA][AEEA][dQ]RP[NMeR][Cha]SHKG[Oic][Nle][Pip′][αMeF]-OH
Rat APJ receptor
  EC50 Rat APJ Receptor: 2.49 nM
Human APJ receptor
  EC50 Human APJ Receptor: 1.25 nM

B9: SEQ ID NO: 574 (peptide)
peptide: Palmitoyl-[AC4Abu][AEEA][AEEA][dQ]RP[NMeR][Cha]SHKG[Pip′][Nle][d(β3hF)]-OH
Rat APJ receptor
  EC50 Rat APJ Receptor: 2.83 nM
Human APJ receptor
  EC50 Human APJ Receptor: 0.652 nM

B10: SEQ ID NO: 612 (peptide)
peptide: Palmitoyl-[γGlu][AEEA][AEEA][dQ]RP[NMeR][Cha]SHKG[Oic][Nle][β3hP][dAMF]-OH
Rat APJ receptor
  EC50 Rat APJ Receptor: 4.62 nM
Human APJ receptor
  EC50 Human APJ Receptor: 1.72 nM

B11: SEQ ID NO: 588 (peptide)
peptide: Palmitoyl-[AC4Abu][AEEA][AEEA][dQ]RP[NMeR][Cha]SHKG[Pip][Nle][Nip][Phe(4-Cl)]-OH
Rat APJ receptor
  EC50 Rat APJ Receptor: 6.37 nM
Human APJ receptor
  EC50 Human APJ Receptor: 1.52 nM

B12: SEQ ID NO: 608 (peptide)
peptide: Palmitoyl-[γGlu][AEEA][AEEA][dQ]RP[NMeR][Cha]SHKG[Oic][Nle][Aib][αMeF]-OH
SMILES: CCCCCCCCCCCCCCCC(=O)N[C@@H](CCC(=O)NCCOCCOCC(=O)NCCOCCOCC(=O)N[C@H](CCC(N)=O)C(=O)N[C@@H](CCCNC(=N)N)C(=O)N1CCC[C@H]1C(=O)N(C)[C@@H](CCCNC(=N)N)C(=O)N[C@@H](CC1CCCCC1)C(=O)N[C@@H](CO)C(=O)N[C@@H](Cc1c[nH]cn1)C(=O)N[C@@H](CCCCN)C(=O)NCC(=O)N1[C@H](C(=O)N[C@@H](CCCC)C(=O)NC(C)(C)C(=O)N[C@@](C)(Cc2ccccc2)C(=O)O)C[C@@H]2CCCC[C@@H]21)C(=O)O
Rat APJ receptor
  EC50 Rat APJ Receptor: 0.326 nM
Human APJ receptor
  EC50 Human APJ Receptor: 0.214 nM

B13: SEQ ID NO: 579 (peptide)
peptide: Palmitoyl-[AC4Abu][AEEA][AEEA][dQ]RP[NMeR][Cha]SHKG[Pip][Nle][β3hF]-OH
SMILES: CCCCCCCCCCCCCCCC(=O)NCCC(C(=O)O)C(=O)NCCOCCOCC(=O)NCCOCCOCC(=O)N[C@H](CCC(N)=O)C(=O)N[C@@H](CCCNC(=N)N)C(=O)N1CCC[C@H]1C(=O)N(C)[C@@H](CCCNC(=N)N)C(=O)N[C@@H](CC1CCCCC1)C(=O)N[C@@H](CO)C(=O)N[C@@H](Cc1c[nH]cn1)C(=O)N[C@@H](CCCCN)C(=O)NCC(=O)N1CCCC[C@H]1C(=O)N[C@@H](CCCC)C(=O)N[C@H](CC(=O)O)Cc1ccccc1
Rat APJ receptor
  EC50 Rat APJ Receptor: 2.5 nM
Human APJ receptor
  EC50 Human APJ Receptor: 0.831 nM
